In patent US20240366775A1, “HUMAN TRANSFERRIN RECEPTOR BINDING ANTIBODY-PEPTIDE CONJUGATE” (PEPTIDREAM INC., priority 2021, published 2024):

How the values were obtained:
[1] = biological target: T1, PD-L1 (Homo sapiens, UniProt Q9NZQ7); experiment: ELISA bindability of atezolizumab-peptide conjugate to PD-L1; type: binding; conditions: sample at 100 nM, average absorbance of two measurements
T1 construct: purchased R&D SYSTEMS 9049-B7
Method: The bindability of atezolizumab-peptide conjugates to the antigen PD-L1 was measured by ELISA.
100 μg of PD-L1 (R&D SYSTEMS, Cat. No. 9049-B7) was dissolved in PBS (Nacalai Tesque, Inc., Cat. No. 27575-31) to a final concentration of 1 g/L. To the dissolved PD-L1, 5 equivalents of 10 mM NHS-PEG4-Biotin (Thermo Scientific, Cat. No. A39259) was added and incubated at 4° C. overnight to biotinylate PD-L1. To a column packed with 1 mL of Bio-Gel P-6 (Bio-Rad, Cat. No. 1504130), swollen with a solution of polyoxyethylene sorbitan monolaurate (Nacalai Tesque, Inc., Cat. No. 28353-85) added to PBS to a final concentration of 0.1% (PBST), 100 μL of the above solution was added per one column to remove unreacted NHS-PEG4-Biotin.
Random biotinylated PD-L1 was added to IMMOBILIZER STREPTAVIDIN F96 clear (NUNC, Cat. No. 436014) at 1 μmol per one well and incubated at 4° C. overnight to perform solidification. The plate was washed with 900 μL of PBST in a plate washer (TECAN, HydroSpeed). 300 μL of 1% Block Ace (KAC Co., Ltd., Cat. No. UK-B80) was added per one well and incubated at room temperature for 90 minutes to perform blocking treatment. The plate was washed with 900 μL of PBST in the plate washer. […] The absorbance at 450 nm was measured in a plate reader (Enspir (trademark), Perkin Elmer).

[2] = biological target: T2, human TfR (Homo sapiens, UniProt P02786); experiment: ELISA bindability of various antibody-peptide conjugates to TfR; type: binding; conditions: sample at 100 nM, average absorbance of two measurements
T2 construct: made in house
T2 sequence (P02786 whole entry): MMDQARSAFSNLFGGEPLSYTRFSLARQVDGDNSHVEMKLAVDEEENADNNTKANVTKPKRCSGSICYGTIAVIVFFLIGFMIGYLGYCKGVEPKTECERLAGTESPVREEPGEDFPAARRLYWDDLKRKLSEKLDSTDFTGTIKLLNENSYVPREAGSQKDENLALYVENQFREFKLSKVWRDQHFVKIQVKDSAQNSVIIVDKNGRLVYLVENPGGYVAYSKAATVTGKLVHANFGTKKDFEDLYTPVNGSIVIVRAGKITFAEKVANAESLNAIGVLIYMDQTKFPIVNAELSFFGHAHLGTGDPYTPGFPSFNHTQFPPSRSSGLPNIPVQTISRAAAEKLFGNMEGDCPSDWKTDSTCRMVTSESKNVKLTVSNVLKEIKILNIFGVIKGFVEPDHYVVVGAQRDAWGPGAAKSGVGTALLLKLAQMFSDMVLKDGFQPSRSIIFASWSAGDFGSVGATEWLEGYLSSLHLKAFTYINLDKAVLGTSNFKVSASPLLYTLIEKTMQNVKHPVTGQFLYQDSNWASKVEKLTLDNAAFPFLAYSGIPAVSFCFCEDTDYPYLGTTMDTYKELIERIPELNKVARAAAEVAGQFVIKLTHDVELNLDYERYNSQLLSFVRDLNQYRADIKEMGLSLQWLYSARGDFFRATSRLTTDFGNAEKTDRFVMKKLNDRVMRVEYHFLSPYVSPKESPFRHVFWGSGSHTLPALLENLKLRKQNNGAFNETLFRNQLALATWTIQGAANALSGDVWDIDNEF
Method: (§1) Random biotinylated TfR was added to IMMOBILIZER STREPTAVIDIN F96 clear (NUNC, Cat. No. 436014) at 1 μmol per one well and incubated at 4° C. overnight to perform solidification. The plate was washed with 900 μL of PBST in a plate washer (TECAN, HydroSpeed). 300 μL of 1% Block Ace (KAC Co., Ltd., Cat. No. UK-B80) was added per one well and incubated at room temperature for 90 minutes to perform blocking treatment. The plate was washed with 900 μL of PBST in the plate washer. 50 μL of various antibody-peptide conjugate and antibody whose peptide is not modified diluted to a final concentration of 100 nM by 50 mM HEPES pH 7.8-0.1% Block Ace were added and incubated at room temperature for 60 min. The plate was washed with 900 μL of PBST in the plate washer. 50 μL of Goat Anti-Human IgG H&L (HRP) (Abcam, Cat. No. ab97165) diluted 50,000 times with PBST-0.1% Block Ace solution was added and incubated at room temperature for 45 min. The plate was washed with 900 μL of PBST in the plate washer. 50 μL of TMB Solution (Sara care, Cat. No. 5150-0077) at room temperature was added and color development was performed at room temperature for 10 min in dark place, then 50 μL of TMB Stop Solution (Sara care, Cat. No. 5150-0021) was added to stop the color development. The absorbance at 450 nm was measured in a plate reader (Enspir (trademark), Perkin Elmer).

[3] = ELISA no-target control wells (non-specific binding of antibodies and antibody-peptide conjugates); conditions: sample at 100 nM, no target immobilized
Method: as §1, with “PD-1” for “TfR”, “50 μL of various antibody-peptide conjugate and antibody whose peptide is not modified diluted to a final concentration of 100 nM by 50 mM HEPES pH 7.8-0.1% Block Ace were added and incubated at room temperature for 60 min.” left out
as §1

T1 sequence (Q9NZQ7 19-290): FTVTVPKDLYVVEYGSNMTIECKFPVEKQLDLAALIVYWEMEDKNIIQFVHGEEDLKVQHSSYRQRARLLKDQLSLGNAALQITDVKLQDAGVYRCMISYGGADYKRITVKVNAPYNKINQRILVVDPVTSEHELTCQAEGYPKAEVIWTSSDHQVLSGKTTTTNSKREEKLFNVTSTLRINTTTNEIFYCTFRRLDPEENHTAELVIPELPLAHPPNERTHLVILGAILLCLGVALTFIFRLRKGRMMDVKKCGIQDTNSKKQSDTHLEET

- Abs450 nm at 100 nM, Target PD-L1 [1]: 2.237
- Abs450 nm at 100 nM, Target hTfR [2]: 0.0465
- Abs450 nm at 100 nM, No-target [3]: 0.043
Substance: atezolizumab
